Measurements: article PMC2734569, “Functional mapping of the fission yeast DNA polymerase δ B-subunit Cdc1 by site-directed and random pentapeptide insertion mutagenesis” (BMC Molecular Biology, 2009)
Numbering of substitutions follows the chain as printed.

Legend:
Experiment in all cases: two-hybrid; LexA-Cdc1 bait (pBTM116 or pBTM116BN) with Gal4 activation domain-Cdc27 prey (pGAD2F-Cdc27) in S. cerevisiae CTY10-5d; ONPG liquid culture beta-galactosidase assay, mean of triplicates, as percent of wild-type Cdc1
Conditions in all cases: partners not purified
Cdc1-J2 = target: T1, Cdc1-J2 (Schizosaccharomyces pombe, UniProt P87324 1-462, Tyr-ArgGlyThrProTyr-Ser)
T1 construct: Cdc1, S. pombe, with a pentapeptide inserted after residue 25; also called J18; J20; source: yeast two-hybrid fusion, in S. cerevisiae CTY10-5d
T1 sequence (looked up): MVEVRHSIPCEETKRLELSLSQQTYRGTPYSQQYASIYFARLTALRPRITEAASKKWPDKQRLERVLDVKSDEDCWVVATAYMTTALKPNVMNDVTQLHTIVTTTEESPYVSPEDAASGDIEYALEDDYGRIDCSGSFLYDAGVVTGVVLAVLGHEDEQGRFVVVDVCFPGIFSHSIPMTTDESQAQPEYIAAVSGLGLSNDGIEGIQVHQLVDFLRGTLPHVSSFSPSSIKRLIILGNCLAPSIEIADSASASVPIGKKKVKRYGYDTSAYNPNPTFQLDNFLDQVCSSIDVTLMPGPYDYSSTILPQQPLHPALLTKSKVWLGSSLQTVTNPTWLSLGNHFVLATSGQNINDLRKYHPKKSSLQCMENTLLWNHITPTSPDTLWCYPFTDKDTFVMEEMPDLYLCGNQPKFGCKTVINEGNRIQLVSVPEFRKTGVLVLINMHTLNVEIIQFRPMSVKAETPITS

Cdc1-J10 = target: T2, Cdc1-J10 (Schizosaccharomyces pombe, UniProt P87324 1-462, Tyr-ArgGlyThrProTyr-Met)
T2 construct: Cdc1, S. pombe, with a pentapeptide inserted after residue 77; also called J11; E6; source: yeast two-hybrid fusion, in S. cerevisiae CTY10-5d
T2 sequence (looked up): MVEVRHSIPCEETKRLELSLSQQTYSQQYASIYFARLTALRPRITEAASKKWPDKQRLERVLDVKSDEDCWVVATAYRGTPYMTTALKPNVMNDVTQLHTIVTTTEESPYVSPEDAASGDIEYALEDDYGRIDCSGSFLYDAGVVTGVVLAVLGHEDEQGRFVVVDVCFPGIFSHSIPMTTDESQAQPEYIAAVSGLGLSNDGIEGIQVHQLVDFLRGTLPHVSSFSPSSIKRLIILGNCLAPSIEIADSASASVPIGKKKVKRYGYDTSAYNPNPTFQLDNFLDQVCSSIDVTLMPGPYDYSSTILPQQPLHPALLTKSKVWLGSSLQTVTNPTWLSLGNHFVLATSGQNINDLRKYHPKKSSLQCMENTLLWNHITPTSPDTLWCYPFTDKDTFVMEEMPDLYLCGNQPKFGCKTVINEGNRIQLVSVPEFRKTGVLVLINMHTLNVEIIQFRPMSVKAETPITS

Cdc1-A6 = target: T3, Cdc1-A6 (Schizosaccharomyces pombe, UniProt P87324 1-462, Pro329Ala)
T3 construct: Cdc1, S. pombe, point mutant; source: yeast two-hybrid fusion, in S. cerevisiae CTY10-5d
T3 sequence (looked up): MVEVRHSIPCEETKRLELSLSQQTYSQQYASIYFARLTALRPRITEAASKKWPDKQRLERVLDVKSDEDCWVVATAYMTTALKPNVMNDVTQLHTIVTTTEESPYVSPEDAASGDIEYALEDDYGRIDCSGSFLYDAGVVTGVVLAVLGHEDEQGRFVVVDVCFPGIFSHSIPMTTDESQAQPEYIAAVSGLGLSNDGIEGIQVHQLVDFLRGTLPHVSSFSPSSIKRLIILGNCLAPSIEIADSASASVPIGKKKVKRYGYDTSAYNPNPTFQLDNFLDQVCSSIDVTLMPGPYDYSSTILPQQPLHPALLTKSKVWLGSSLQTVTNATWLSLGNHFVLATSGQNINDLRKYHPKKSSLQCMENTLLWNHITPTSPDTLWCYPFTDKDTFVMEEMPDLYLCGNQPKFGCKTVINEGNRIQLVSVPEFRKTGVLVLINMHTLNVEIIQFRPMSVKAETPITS

Cdc1-A7 = target: T4, Cdc1-A7 (Schizosaccharomyces pombe, UniProt P87324 1-462, Gly344Ala)
T4 construct: Cdc1, S. pombe, point mutant; source: yeast two-hybrid fusion, in S. cerevisiae CTY10-5d
T4 sequence (looked up): T3 sequence (looked up) with A329P, G344A

B1: Cdc27 (fission yeast DNA polymerase delta C-subunit) (natural protein, Schizosaccharomyces pombe, UniProt P30261 1-372, looked up)
chain: MEEWRNFLDIKVINESSLVTVDNLSLQLDISSEKAQEYLNMFYQGNDFLYPIYLIHGQPIDDEINLEIDEESQPISNFPVLQYILCDKSSLQEKQSRLKSGYKTVIFALSSAPLSDFDELLPAVYEIREKDVLYKKEDADKYGFIFNENSVPRVLKKAPSTHSPQLSVPSKTSTIDKTDTRSTEKTKGKDIFSNARNQKGNSSRKNKKAPLENHKEKEPLLPKEEKLSEQAKRERDDLKNIMQLEDESVSTTSVHDSEDDNLDSNNFQLEIGTEAKSAAPDEPQEIIKSVSGGKRRGKRKVKKYATTKDEEGFLVTKEEEVWESFSEDENISTGTSNVVRNKPTTVNIATKKKNTAQSKPQQKSIMSFFGKK
notes: DNA polymerase delta C-subunit Cdc27, S. pombe; prey plasmid pGAD2F-Cdc27; also called pGAD2F-Cdc27; source: yeast two-hybrid fusion, in S. cerevisiae CTY10-5d
- two-hybrid beta-galactosidase activity, % of wild-type Cdc1 (Cdc1-J2): < 1%
- two-hybrid beta-galactosidase activity, % of wild-type Cdc1 (Cdc1-J10): 30%
- two-hybrid beta-galactosidase activity, % of wild-type Cdc1 (Cdc1-A6): 6%
- two-hybrid beta-galactosidase activity, % of wild-type Cdc1 (Cdc1-A7): < 1%
